Source: PMC8041999 (2021)

B1: FLAG-tagged KIR2DL2, full-length, wild type, on 293T cells [human] / HLA-C*07:02-RL9 tetramer (phycoerythrin-conjugated) [modified: biotin (enzymatically, with biotin ligase)] [human | not stated] (parent complex)
chain 1: HEGVHRKPSLLAHPGRLVKSEETVILQCWSDVRFEHFLLHREGKFKDTLHLIGEHHDGVSKANFSIGPMMQDLAGTYRCYGSVTHSPYQLSAPSDPLDIVITGLYEKPSLSAQPGPTVLAGESVTLSCSSRSSYDMYHLSREGEAHECRFSAGPKVNGTFQADFPLGPATHGGTYRCFGSFRDSPYEWSNSSDPLLVSVIGNPSNSWPSPTEPSSKTGNPRHLHILIGTSVVIILFILLFFLLHRWCSNKKNAAVMDQESAGNRTANSEDSDEQDPQEVTYTQLNHCVFTQRKITRPSQRPKTPPTDIIVYAELPNAESRSKVVSCP
chain 2: not shown
chain 3: not shown
chain 4: RYRPGTVAL
B2: FLAG-tagged KIR2DL2, full-length, wild type, on 293T cells [human] / HLA-C*03:04-GL9 tetramer (phycoerythrin-conjugated) [modified: biotin (enzymatically, with biotin ligase)] [human] (parent complex)
chain 1: B1 chain 1
chain 2: not shown
chain 3: not shown
chain 4: GAVDPLLAL
B3: FLAG-tagged KIR2DL3, full-length, wild type, on 293T cells [human] / HLA-C*07:02-RL9 tetramer (phycoerythrin-conjugated) [modified: biotin (enzymatically, with biotin ligase)] [human | not stated] (parent complex)
chain 1: HEGVHRKPSLLAHPGPLVKSEETVILQCWSDVRFQHFLLHREGKFKDTLHLIGEHHDGVSKANFSIGPMMQDLAGTYRCYGSVTHSPYQLSAPSDPLDIVITGLYEKPSLSAQPGPTVLAGESVTLSCSSRSSYDMYHLSREGEAHERRFSAGPKVNGTFQADFPLGPATHGGTYRCFGSFRDSPYEWSNSSDPLLVSVTGNPSNSWPSPTEPSSETGNPRHLHVLIGTSVVIILFILLLFFLLHRWCCNKKNAVVMDQEPAGNRTVNREDSDEQDPQEVTYAQLNHCVFTQRKITRPSQRPKTPPTDIIVYTELPNAEP
chain 2: not shown
chain 3: not shown
chain 4: RYRPGTVAL
B4: FLAG-tagged KIR2DL3, full-length, wild type, on 293T cells [human] / HLA-C*03:04-GL9 tetramer (phycoerythrin-conjugated) [modified: biotin (enzymatically, with biotin ligase)] [human] (parent complex)
chain 1: B3 chain 1
chain 2: not shown
chain 3: not shown
chain 4: GAVDPLLAL

Variants of: B1
Assay: flow cytometry, HLA tetramer staining of transfected 293T cells; percentage tetramer+ normalised to percentage FLAG+; read off a plot

| ratio to parent | Variant |
| --- | --- |
| ~1.2 | chain 1 E106A |
| ~1.3 | chain 1 D72A |
| ~0.67 | chain 1 D183A |
| ~1.1 | chain 1 F45A |
| ~1 | chain 1 E21A |
| ~1.2 | chain 1 D135A |
| ~0.92 | chain 1 M70A |
| ~0.01 | chain 1 Y105A |
| ~0.67 | chain 1 L104A |
| ~1.2 | chain 1 S133A |
| ~1 | chain 1 S132A |
| ~1.1 | chain 1 K44A |

Variants of: B2
Assay: as above

| ratio to parent | Variant |
| --- | --- |
| ~0.01 | chain 1 Y105A |
| ~0.03 | chain 1 D135A |
| ~1.1 | chain 1 D72A |
| ~0.17 | chain 1 S133A |
| ~0.02 | chain 1 L104A |
| ~1 | chain 1 M70A |
| ~0.03 | chain 1 F45A |
| ~0.93 | chain 1 E106A |
| ~0.95 | chain 1 K44A |
| ~0.88 | chain 1 E21A |
| ~1 | chain 1 S132A |
| ~0.02 | chain 1 D183A |

Variants of: B3
Assay: as above

| ratio to parent | Variant |
| --- | --- |
| ~0.85 | chain 1 E106A |
| ~0.9 | chain 1 K44A |
| ~0.57 | chain 1 D135A |
| ~0.72 | chain 1 F45A |
| ~0.02 | chain 1 Y105A |
| ~0.4 | chain 1 L104A |
| ~1.3 | chain 1 M70A |
| ~0.33 | chain 1 D183A |
| ~1.1 | chain 1 D72A |
| ~1.2 | chain 1 S133A |
| ~0.97 | chain 1 E21A |
| ~1.1 | chain 1 S132A |

Variants of: B4
Assay: as above

| ratio to parent | Variant |
| --- | --- |
| ~0.05 | chain 1 D183A |
| ~0.6 | chain 1 K44A |
| ~0.02 | chain 1 Y105A |
| ~1.2 | chain 1 S132A |
| ~0.92 | chain 1 E21A |
| ~0.05 | chain 1 L104A |
| ~0.57 | chain 1 S133A |
| ~1.1 | chain 1 M70A |
| ~1 | chain 1 D72A |
| ~0.04 | chain 1 F45A |
| ~0.1 | chain 1 D135A |
| ~0.82 | chain 1 E106A |
